One test deals with MC3R. Put plainly: Effect of divalent ions on cAMP accumulation, MC3R. Format: cell-based, human. As for the experimental part: (§1) For assessing the effect of divalent ions on cAMP signaling, HEK293T cells were digested with 0.02% (w/v) EDTA and washed three times with calcium/magnesium-free HBSS buffer. Then the cells were resuspended and stimulated with different concentrations of ligands in Ca^2+-free stimulation buffer (the aforementioned stimulation buffer supplemented with 1 mM EGTA), or with additional 2 mM divalent ions in Ca^2+-free stimulation buffer ([divalent ions] = ~1 mM)[38]. The rest of steps were essentially the same as described above.
(In general: Changes in cAMP serve as a functional read-out for many G protein-coupled receptors.)

In another test the test system is MC5R. Put plainly: Effect of divalent ions on cAMP accumulation, MC5R. Type of test: cell-based, human. As to the method: as §1
Test [1] deals with MC5R mutant F118^3.28A (human) (UniProt P33032).
Sequence of MC5R mutant F118^3.28A (human) (P33032 other isoform, or with tags, fused parts or gaps mutant): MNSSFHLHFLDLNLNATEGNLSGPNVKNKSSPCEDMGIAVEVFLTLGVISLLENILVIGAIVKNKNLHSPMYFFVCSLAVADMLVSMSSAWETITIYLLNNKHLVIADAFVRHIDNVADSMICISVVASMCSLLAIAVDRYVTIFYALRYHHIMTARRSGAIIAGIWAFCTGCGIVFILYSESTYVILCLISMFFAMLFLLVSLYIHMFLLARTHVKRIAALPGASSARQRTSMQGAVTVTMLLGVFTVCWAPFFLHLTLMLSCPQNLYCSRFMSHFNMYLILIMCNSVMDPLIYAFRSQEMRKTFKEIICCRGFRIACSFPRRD
Test [2] has as its target MC5R mutant V126L (human) (UniProt P33032).
Test [3] addresses MC5R mutant D115^3.25A (human) (UniProt P33032).
In test [4] the target is MC5R mutant V126^3.36A (human) (UniProt P33032).
Sequence of MC5R mutant V126^3.36A (human) (P33032 other isoform, or with tags, fused parts or gaps mutant): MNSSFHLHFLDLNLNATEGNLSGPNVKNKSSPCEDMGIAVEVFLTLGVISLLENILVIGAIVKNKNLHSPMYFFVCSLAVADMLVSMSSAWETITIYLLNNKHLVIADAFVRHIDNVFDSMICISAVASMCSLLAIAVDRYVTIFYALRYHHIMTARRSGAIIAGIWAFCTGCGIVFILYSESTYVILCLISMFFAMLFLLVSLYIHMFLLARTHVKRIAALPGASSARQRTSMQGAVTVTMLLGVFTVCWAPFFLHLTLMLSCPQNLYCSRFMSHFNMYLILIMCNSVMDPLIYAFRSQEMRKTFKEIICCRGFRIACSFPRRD
For test [5], the target named is MC5R mutant F254^6.51A (human) (UniProt P33032).
Sequence of MC5R mutant F254^6.51A (human) (P33032 other isoform, or with tags, fused parts or gaps mutant): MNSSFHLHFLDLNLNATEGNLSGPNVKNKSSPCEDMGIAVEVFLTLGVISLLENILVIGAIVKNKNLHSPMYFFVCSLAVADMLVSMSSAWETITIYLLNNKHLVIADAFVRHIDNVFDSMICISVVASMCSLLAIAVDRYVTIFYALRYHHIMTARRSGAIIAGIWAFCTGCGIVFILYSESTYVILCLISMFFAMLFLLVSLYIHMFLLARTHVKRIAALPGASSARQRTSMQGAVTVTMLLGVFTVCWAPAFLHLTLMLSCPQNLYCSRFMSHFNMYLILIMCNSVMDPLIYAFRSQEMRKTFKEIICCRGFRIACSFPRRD
Test [6] deals with MC3R mutant L128^3.36V (human) (UniProt P41968).
For test [7], the target named is MC5R mutant L99^2.67A (human) (UniProt P33032).
Sequence of MC5R mutant L99^2.67A (human) (P33032 other isoform, or with tags, fused parts or gaps mutant): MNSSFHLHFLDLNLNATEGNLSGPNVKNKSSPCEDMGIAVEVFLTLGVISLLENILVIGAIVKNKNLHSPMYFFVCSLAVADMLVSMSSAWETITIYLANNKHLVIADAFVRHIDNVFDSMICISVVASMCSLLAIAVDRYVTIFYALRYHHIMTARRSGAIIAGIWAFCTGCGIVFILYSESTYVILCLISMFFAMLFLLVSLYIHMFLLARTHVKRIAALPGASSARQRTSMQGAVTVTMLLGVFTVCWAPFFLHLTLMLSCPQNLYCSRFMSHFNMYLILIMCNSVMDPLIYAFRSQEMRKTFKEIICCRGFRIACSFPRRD
Test [8] has as its target MC3R mutant L128^3.36A (human) (UniProt P41968).
The target of test [9] is wild-type MC5R on cells (human) (UniProt P33032).
Sequence of wild-type MC5R on cells (human) (P33032 whole entry): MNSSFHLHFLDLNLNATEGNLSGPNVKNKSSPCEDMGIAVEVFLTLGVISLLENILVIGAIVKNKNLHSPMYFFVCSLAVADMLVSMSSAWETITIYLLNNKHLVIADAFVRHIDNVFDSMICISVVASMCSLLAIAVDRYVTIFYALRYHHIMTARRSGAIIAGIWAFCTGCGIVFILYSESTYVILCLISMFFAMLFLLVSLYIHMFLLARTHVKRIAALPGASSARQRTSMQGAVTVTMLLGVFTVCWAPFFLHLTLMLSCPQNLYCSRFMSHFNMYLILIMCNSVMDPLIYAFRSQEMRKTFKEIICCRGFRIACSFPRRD
A further test has as its system MC2R. Put plainly: Effect of divalent ions on cAMP accumulation, MC2R. Type of test: cell-based. To be noted: 1 mM Ca^2+ vs divalent ion-free background, HEK293T. As to the method: as §1
A further test addresses wild-type MC2R on cells (UniProt Q01718).
Test [10] addresses MC5R mutant F254^6.51A (human) (UniProt P33032). This is another data set of the same source.
Test [11] deals with MC5R mutant D115^3.25A (human) (UniProt P33032). The source holds these as a separate data set.
Sequence of MC5R mutant D115^3.25A (human) (P33032 other isoform, or with tags, fused parts or gaps mutant): as the sequence (P33032 whole entry) above, with D115A counted along it
Test [12] addresses MC5R mutant D119^3.29A (human) (UniProt P33032).
The target in the next test is wild-type MC1R on cells (UniProt Q01726).
Test [13] concerns the target wild-type MC3R on cells (human) (UniProt P41968).
Test [14] addresses MC3R mutant F45^1.39A (human) (UniProt P41968).
The target in test [15] is MC3R mutant F258^6.51A (human) (UniProt P41968).
Sequence of MC3R mutant F258^6.51A (human) (P41968 other isoform, or with tags, fused parts or gaps mutant): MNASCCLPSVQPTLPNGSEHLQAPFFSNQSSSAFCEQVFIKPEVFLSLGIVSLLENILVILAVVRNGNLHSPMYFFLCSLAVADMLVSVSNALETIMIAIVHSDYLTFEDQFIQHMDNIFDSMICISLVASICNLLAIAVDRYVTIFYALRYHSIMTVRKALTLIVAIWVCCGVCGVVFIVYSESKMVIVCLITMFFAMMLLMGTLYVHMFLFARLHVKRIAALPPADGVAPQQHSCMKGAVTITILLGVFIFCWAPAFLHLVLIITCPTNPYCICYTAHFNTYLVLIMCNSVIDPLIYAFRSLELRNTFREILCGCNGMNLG
Test [16] deals with MC3R mutant H261^6.54A (human) (UniProt P41968).
For test [17], the target named is MC3R mutant F45^1.39A (human) (UniProt P41968). This is another data set of the same source.
Sequence of MC3R mutant F45^1.39A (human) (P41968 other isoform, or with tags, fused parts or gaps mutant): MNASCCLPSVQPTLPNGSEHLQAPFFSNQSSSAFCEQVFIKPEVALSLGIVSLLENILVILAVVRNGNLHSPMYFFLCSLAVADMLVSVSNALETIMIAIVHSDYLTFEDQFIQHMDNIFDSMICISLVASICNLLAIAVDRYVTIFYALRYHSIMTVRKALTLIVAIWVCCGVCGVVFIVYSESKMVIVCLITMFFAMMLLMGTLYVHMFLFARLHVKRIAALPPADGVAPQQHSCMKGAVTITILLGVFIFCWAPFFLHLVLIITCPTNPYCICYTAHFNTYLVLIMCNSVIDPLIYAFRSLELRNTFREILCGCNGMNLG
Test [18] deals with MC3R mutant I180^4.61A (human) (UniProt P41968).
Sequence of MC3R mutant I180^4.61A (human) (P41968 other isoform, or with tags, fused parts or gaps mutant): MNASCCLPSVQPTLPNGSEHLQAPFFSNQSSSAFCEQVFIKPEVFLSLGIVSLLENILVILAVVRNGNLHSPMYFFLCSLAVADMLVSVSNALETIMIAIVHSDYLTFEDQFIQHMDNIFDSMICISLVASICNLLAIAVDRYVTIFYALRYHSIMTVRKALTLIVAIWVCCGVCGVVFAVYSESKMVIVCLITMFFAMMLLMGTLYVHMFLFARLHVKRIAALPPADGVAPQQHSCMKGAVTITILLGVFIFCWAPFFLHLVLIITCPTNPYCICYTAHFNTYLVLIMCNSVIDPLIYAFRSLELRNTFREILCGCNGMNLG
In test [19] the target is MC3R mutant D121^3.29A (human) (UniProt P41968).
Sequence of MC3R mutant D121^3.29A (human) (P41968 other isoform, or with tags, fused parts or gaps mutant): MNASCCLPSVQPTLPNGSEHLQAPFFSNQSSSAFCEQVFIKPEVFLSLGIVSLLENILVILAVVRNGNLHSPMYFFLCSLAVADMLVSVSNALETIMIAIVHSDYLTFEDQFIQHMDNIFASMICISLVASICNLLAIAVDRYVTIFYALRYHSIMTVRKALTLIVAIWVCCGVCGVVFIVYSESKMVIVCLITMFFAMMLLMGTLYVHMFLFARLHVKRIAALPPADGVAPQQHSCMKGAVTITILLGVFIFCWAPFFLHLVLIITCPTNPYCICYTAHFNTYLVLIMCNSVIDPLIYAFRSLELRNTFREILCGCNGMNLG
Test [20] addresses MC3R mutant I265^6.58M (human) (UniProt P41968).
Test [21] addresses MC3R mutant I265^6.58Y (human) (UniProt P41968).
In test [22] the target is MC3R mutant I265^6.58W (human) (UniProt P41968).

Entries after “also recorded” stand apart in the source; their conditions may differ.

Here are results for seven molecules from article PMC10390531, “Structural insights into ligand recognition and subtype selectivity of the human melanocortin-3 and melanocortin-5 receptors” (Cell Discovery, 2023).

Sequence of MC3R mutant L128^3.36A (human) (P41968 other isoform, or with tags, fused parts or gaps mutant): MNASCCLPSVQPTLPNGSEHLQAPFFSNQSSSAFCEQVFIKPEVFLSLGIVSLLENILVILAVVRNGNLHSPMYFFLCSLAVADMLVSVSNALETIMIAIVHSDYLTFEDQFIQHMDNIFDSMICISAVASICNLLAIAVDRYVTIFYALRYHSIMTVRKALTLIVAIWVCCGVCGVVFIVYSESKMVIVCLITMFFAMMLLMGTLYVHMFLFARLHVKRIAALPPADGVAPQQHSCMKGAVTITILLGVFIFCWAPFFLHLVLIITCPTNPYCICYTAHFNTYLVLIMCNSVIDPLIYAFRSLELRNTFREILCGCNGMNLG
Sequence of MC5R mutant D119^3.29A (human) (P33032 other isoform, or with tags, fused parts or gaps mutant): as the sequence (P33032 whole entry) above, with D119A counted along it
Sequence of MC5R mutant V126L (human) (P33032 whole entry V126L): as the sequence (P33032 whole entry) above, with V126L counted along it
Sequence of MC3R mutant I265^6.58Y (human) (P41968 other isoform, or with tags, fused parts or gaps mutant): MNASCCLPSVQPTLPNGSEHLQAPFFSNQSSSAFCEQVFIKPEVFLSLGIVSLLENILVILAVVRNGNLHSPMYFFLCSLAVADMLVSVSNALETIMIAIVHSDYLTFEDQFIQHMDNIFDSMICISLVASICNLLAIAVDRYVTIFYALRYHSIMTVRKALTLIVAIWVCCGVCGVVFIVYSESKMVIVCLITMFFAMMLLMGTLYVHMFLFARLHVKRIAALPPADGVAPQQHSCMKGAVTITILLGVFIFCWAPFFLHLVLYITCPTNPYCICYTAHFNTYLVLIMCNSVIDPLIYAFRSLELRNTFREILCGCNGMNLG
Sequence of MC3R mutant I265^6.58M (human) (P41968 other isoform, or with tags, fused parts or gaps mutant): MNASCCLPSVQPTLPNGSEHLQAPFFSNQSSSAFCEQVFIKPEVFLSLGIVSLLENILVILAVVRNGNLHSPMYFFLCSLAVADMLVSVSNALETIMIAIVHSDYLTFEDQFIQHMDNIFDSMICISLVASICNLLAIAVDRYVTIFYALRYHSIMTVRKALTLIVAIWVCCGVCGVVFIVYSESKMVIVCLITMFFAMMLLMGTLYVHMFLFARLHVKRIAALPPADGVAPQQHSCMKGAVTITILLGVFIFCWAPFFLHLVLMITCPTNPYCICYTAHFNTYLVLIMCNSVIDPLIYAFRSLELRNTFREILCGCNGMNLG

With `[Mg+2]` [Mg^2+, magnesium ion], the “effect of Mg^2+ on Gs signaling” value in the test on MC3R (1 mM Mg^2+) and with MC5R (1 mM Mg^2+) was “neglectable impact; also recorded: little impact” throughout.

On to `[Zn+2]` [Zn^2+, zinc ion], for which the “effect of Zn^2+ on ligand-induced cAMP response” value is “dramatic reduction of cAMP response; also recorded: inhibited the efficacy” in the test on MC3R (1 mM Zn^2+, γ-MSH) and “dramatic reduction of cAMP response; also recorded: inhibited the efficacy” with MC5R (1 mM Zn^2+, α-MSH or PG-901).

Consider PG-901 (peptide), for which the PG-901-induced cAMP accumulation, HEK293T cells; fold reduction against WT in [1] was 4 fold; in [3], 43 fold; in [7], 10 fold. The PG-901-induced cAMP responses, HEK293T cells; fold reduction against WT in test [2] was determined as 16 fold. The PG-901-induced cAMP accumulation, HEK293T cells; fold decrease of potency against WT in test [4] came out at 8 fold; in test [5] it was 44 fold. The PG-901-induced cAMP response, HEK293T cells; EC50 worked out at 32 nM in test [6] and 250 nM in [8]. This molecule came in with a PG-901-induced cAMP accumulation, HEK293T cells; fold increase of potency with 1 mM Ca2+ against a divalent ion-free background in test [9] of 230 fold.

For “adrenocorticotropic hormone (SYSMEHFRWGKPVGKKRRPVKVYPNGAEDESAEAFPLEF; Corticotropin; UniProt P01189 138-176, looked up) [ACTH]”, the “increase of potency by Ca^2+” value with MC2R is listed as 6309 fold.

In the test with wild-type MC2R on cells, adrenocorticotropic hormone (peptide) yielded an ACTH-induced cAMP accumulation, HEK293T cells; fold increase of potency with 1 mM Ca2+ against a divalent ion-free background of 6310 fold.

With α-MSH (peptide), the α-MSH-induced cAMP accumulation, HEK293T cells; fold decrease of potency against WT was more than 100 fold in [10] and 269 fold in test [11]. The molecule also yielded a α-MSH-induced cAMP accumulation, HEK293T cells; fold increase of potency with 1 mM Ca2+ against a divalent ion-free background in test [9] of 182 fold. For the same molecule, the α-MSH-induced cAMP accumulation, HEK293T cells; fold reduction against WT in test [12] is 447 fold.

In the case of γ-MSH (peptide), the γ-MSH-induced cAMP accumulation, HEK293T cells; fold increase of potency with 1 mM Ca2+ against a divalent ion-free background in the test with wild-type MC1R on cells stood at 294 fold; in test [13], 407 fold. Also, the fold reduction of binding affinity against the wild type in [14] is 48 fold. Also, the γ-MSH-induced cAMP accumulation, HEK293T cells; fold decrease of potency against WT in test [15] was 30 fold; in test [16], 32 fold; in [18], 22 fold; in test [19], 22 fold; in test [20], 3 fold; in test [21], 4 fold. Further, the γ-MSH-induced cAMP accumulation, HEK293T cells; fold decrease of potency against WT in [22] was determined as 18 fold. Besides, the γ-MSH-induced cAMP accumulation, HEK293T cells; fold reduction of potency against WT in test [17] worked out at 126 fold.
